In US20110245153A1 one finds Kd data, which are given here for one substance.

Usually Kd stands for the concentration at which binding is half-saturated. The low end stands for a tighter complex, the high end for a looser complex.

The assay has as its target Staphylococcal enterotoxin B (Staphylococcus aureus) (UniProt P01552).
UniProt P01552, sequence (P01552 28-266 limits assumed): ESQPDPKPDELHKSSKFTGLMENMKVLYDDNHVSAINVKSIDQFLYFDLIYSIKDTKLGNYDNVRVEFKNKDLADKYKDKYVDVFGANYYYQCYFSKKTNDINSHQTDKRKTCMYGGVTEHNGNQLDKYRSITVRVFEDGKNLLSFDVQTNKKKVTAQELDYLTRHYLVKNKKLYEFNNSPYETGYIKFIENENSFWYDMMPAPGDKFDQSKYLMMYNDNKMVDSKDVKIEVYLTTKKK

In turn, Vβ8 CDR2 mutant EGIGYITK (TCR) yielded a Kd of 5 nM.
